First the molecules themselves.
B1: Ab 27 scFv-Fc (scFv, V domains shown)
VH: QVQLVQSGTEVKKPGASVKVSCKASGYSFTGSHLHWVRQAPGQGLEWMGWINPDSGVINYAQKFQGRVTLTRDTSISTAYMELSGLRSDDTAVYYCARDKAIGYVWALDYWGQGTLVTVSS
VL: QSALTQPPSVSGSPGQSVTISCTGTSSDVGTYNRVSWYQQPPGKAPKLMIYEVSNRPSGVSNRFSGSKSGNTASLTISGLQAEDEADYYCSSYTRTFTYVFGTGTKVTVL
B2: Ab 15 scFv-Fc (scFv, V domains shown)
VH: QVQLVQSGGGLVKPGRSLRLSCTASGFTFGDYAMSWFRQAPGKGLEWVGFIRSKAYGGTTGYAASVKGRFTISRDDSKSIAYLQMNSLKTEDTAVYYCTTADDDMDVWGKGTTVTVSS
VL: NFMLTQPHSVSESPGKTVTISCTRSSGTIASNYVQWYQQRPGSAPTTVIYEDNQRPSGVPDRFSGSIDRSSNSASLTISGLTPDDEADYYCQSYDTSNHYVFGTGTKVTVL
B3: Ab_13 (scFv, V domains shown)
VH: QVTLKESGPKLVKPTQTLTLTCTFSGFSLSTSGVGVGWIRQPPGKALEWLALIYWDDDKRYSPSLKSRLTIAKDTSKYQVVLTMTNMDPVDTATYYCARISGSGYFYPFDIWGQGTMVTVSA
VL: NFMLTQPHSVSESPGKTVTISCTRSSGSIASNYVQWYQQRPGSAPTTVIYEDNQRPSGVPDRFSGSIDSSSNSASLTISGLKTEDEADYYCQSYDSSNLWVFGGGTKLTVL
B4: Ab 14 scFv-Fc (scFv, V domains shown)
VH: QVQLQQSGPGLVKPSQTLSLTCAISGDSVSSNSAAWNWIRQSPARGLEWLGRTYYRSRWYNDYAISMKSRITINPDTSKNQFSLQLESVTPEDTAVYYCAREIRGFDYWGQGTLVTVSS
VL: QSVLTQPPSASGSPGQSVTISCTGTSSDVGAYNFVSWYQHHPGKAPKLIIYDFNKRPSGVPDRFSGSKSGNTASLTVSGLQADDEADYYCSSYAGSNNFDVVFGGGTKLTVL
B5: Ab_18 (scFv, V domains shown)
VH: EVQLVQSGGGVVQPGRSLRVSCAASGFSFSRYGMHWVRQAPGKGLEWVAFIRHDGSKKYYADSVEGRFTISRDNSRNTVSLEMNSLRGEDTAVYYCAKDGRLEAALDDWGQGTLVTVSS
VL: NFMLTQPHSMSGSAGKTVTVSCIRSSGSIANNFVQWYQQRPGSAPTTVIYEDNQRPSGVPDRFSGSIDSSSNSASLTISGLKTEDEADYYCQSYDSSNLVFGGGTRLTVL
B6: Ab 26 scFv-Fc (scFv, V domains shown)
VH: QVQLVQSGGGLVQPGRSLRLSCAASGFTFDDYAMHWVRQVPGKGLEWVSGIDWNSGVIGYADSVKGRFTISRDNAKNSLYLQMNSLRAEDTALYYCAKDAYSYGFLGAFDIWGQGTMVTVSS
VL: LPVLTQPPSVSVAPGQTASITCGGDNIRTKGVHWYQQKPGQAPLLVIYYASDRPSGIPERFSGSSSGNTATLTISRVEAGDEADYYCQVWDSSSDLVVFGGGTTLTVL
B7: Ab 23 scFv-Fc (scFv, V domains shown)
VH: EVQLVQSGAEVKKPGSSVKVSCRSSGGTFSTYGITWVRQAPGQGLEWMGRIIPSLGIPNYAQKFQGRVTITADTSVSTAWMELSSLESDDTAIYYCARENIDLATNDFWGQGTLVTVSS
VL: QSALTQPPSASGSPGQSVTISCTGTSRDIGAYGYVSWYQQVPGKAPKLIIYEVRNRPSGVSSRFSGSKSGNTASLTISGLQAEDEADYYCSSYTSSSTLDVVFGGGTKLTVL
B8: Ab 25 scFv-Fc (scFv, V domains shown)
VH: QVQLVQSGGGLVQPGGSLRLSCAASGFTFSSYWMSWVRQAPGKGLEWVANIKQDGSEKYYVDSVKGRFTISRDNAKNSLYLQMNSLRAEDTAVYYCARGFYYYGAFDIWGQGTTVTVSS
VL: NFMLTQPHSVSESPGKTVTISCTGSSGSIASNYVQWYQQRPGSAPTTVIYEDNQRPSGVPDRFSGSIGSSSNSASLTISGLKTEDEADYYCQSYDSSNHWVFGGGTKLTVL
B9: Ab 28 scFv-Fc (scFv, V domains shown)
VH: QVTLKESGPGLVNPSETLSLTCTVSGASISNSFWSWIRQSPGKGLEWIGYTSYSGNSIYNPSLKSRLTMSIDTSKNQLSLNLRSLTAADTAVYYCARREWIKGHFDYWGQGTLVTVSS
VL: NFMLTQPHSVSESPGKTVTISCTGSGGSIASNYVQWYQQRPGSAPTTVIYEDNQRPSGVPDRFSGSIDSSSNSASLTISGLKTEDEADYYCQSYDSSNPVVFGGGTKLTVL
B10: Ab 20 (scFv, V domains shown)
VH: QVQLVQSGGGSVKPGGSLRLSCAASGYRLSDYYMHWVRQAPGKGLEWVANIKQDGSEKYYVDSVKGRFTISRDNAKNSLYLQMNSLRAEDTAVYYCARVRGWSRGYFDYWGQGTLVTVSS
VL: NFMLTQPHSVSESPGKTVTISCTGSSGSIASNYVQWYQQRPGSAPTTVIYEDNQRPSGVPDRFSGSIDSSSNSASLLISGLKTEDEADYYCQSYDSSNHWVFGGGTKLTVL
B11: Ab_17 (scFv, V domains shown)
VH: QVQLVQSGGGVVQPGRSLRLSCAASGFTFDDYAMHWVRQVPGKGLEWVSGIDWNSGVIGYADSVKGRFTISRDNVKNSLYLQMNSLRTEDSALYYCAKDIGPGGSGSYYAFDIWGQGTTVTVSS
VL: QSALTQPASVSGSPGQSITISCTGTSSDVGGSKYVSWYQQHPGKAPKVMIYDVTKRPSGVPDRFSGSKSGNTASLTISGLQAEDEADYYCAAWDDSLNGVVFGGGTKLTVL
B12: Ab 21 (scFv, V domains shown)
VH: QVQLVQSGGGLVQPGGSLRLSCATSGFTFDDYAMHWVRQAPGKGLEWVSGISWNSGSIGYVDSVKGRFTISRDNRNNKVYLQMNNLRAEDTAVYYCARDWWGSIDHWGLGTLVTVSS
VL: QSALTQPRSVSGSPGQSVTISCTGTSSDVGGYDYVSWYQQHPGKAPKLIIYDVSKRPSGVPDRFSGSKSGNTASLTVSGLQAEDEADYYCSSYTSSSPVVFGGGTKLTVL
B13: Ab_16 (scFv, V domains shown)
VH: QVQLVQSGGGVVQPGRSLRLSCAASGFTFSNYGMHWVRQAPGKGLEWVALIWERGSKKDYADSVKGRFTVSRDNSKNTLYLQMNSLRPEDTAVYFCAREGISMTGAEYFQHWGQGTLVTVSS
VL: QSVLTQPPSVSGSPGQRVTMSCTGSSSNIGAGYDVHWYQQVPGAAPRLLIYGTNNRPSGVPDRFSGSKSGTSASLTITGLQAEDEADYYCQSYDNSLTDPYVFGTGTKVTVL
B14: Ab 19 scFv-Fc (scFv, V domains shown)
VH: EVQLVESGAEVKKPGESLKISCKGSGYSFTSYWIGWVRQMPGKGLEWMGIIYPGDSDTRYSPSFQGQVTISADKSISTAYLQWSSLKASDTAMYYCARRGDLDAFDIWGQGTMVTVSS
VL: QPGLTQPPAASGTPGQRVTVSCSGASANIGSNAVSWFKQFPETAPRLLISGNTHRPSGVPDRVSGSKSGTSASLTISGLQSDDEADYYCAAWDDSLNGYVFGSGTKVTVL
B15: Ab 12 Fab (Fab, V domains shown)
VH: EVQLVESGPGVVSPSATLFLTCSVSGGSIRTHSWNWIRQPPGKPLEWIGFIHHSGATNKNPSLKSRVTISSDTSKNEFSLTLTSVTAADTAVYYCARGPGILSYWSRGTLVTVSS
VL: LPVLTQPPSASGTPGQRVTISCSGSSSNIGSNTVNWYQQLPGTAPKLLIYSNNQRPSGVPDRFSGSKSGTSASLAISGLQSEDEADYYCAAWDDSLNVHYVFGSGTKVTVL
B16: Ab 12 IgG (antibody, V domains shown)
VH: EVQLVESGPGVVSPSATLFLTCSVSGGSIRTHSWNWIRQPPGKPLEWIGFIHHSGATNKNPSLKSRVTISSDTSKNEFSLTLTSVTAADTAVYYCARGPGILSYWSRGTLVTVSS
VL: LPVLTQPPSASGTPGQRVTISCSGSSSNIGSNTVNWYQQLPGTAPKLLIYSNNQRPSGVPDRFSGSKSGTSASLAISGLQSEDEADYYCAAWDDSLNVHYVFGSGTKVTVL
B17: Ab 12 scFv-Fc (S1-R3-T1-H7) (scFv, V domains shown)
VH: EVQLVESGPGVVSPSATLFLTCSVSGGSIRTHSWNWIRQPPGKPLEWIGFIHHSGATNKNPSLKSRVTISSDTSKNEFSLTLTSVTAADTAVYYCARGPGILSYWSRGTLVTVSS
VL: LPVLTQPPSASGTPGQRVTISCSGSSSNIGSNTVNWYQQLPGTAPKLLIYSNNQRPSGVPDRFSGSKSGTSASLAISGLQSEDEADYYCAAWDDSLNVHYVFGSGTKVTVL

One test addresses biotinylated RBD (BLI sensors) (UniProt P0DTC2 319-537). The test is described as follows: BLI. For orientation: BLI is a label-free optical method that tracks binding on a fibre tip over time.
B1: binding was characterised by a dissociation constant (Kd) of 0.906 nM.
With B2, the Kd (usually the equilibrium constant for the complex coming apart) is 6.61 nM.
The same measure, in the same setting: then B3, with 0.922 nM; and B4, with 0.911 nM; and B5, with 2.31 nM.
Still for that read-out and setting: to B6 belongs 0.704 nM.
B7: the Kd is less than 0.001 nM.
Still for that read-out and setting: to B8 belongs 0.223 nM; to B9, 0.166 nM; to B10, 1.9 nM.
For B11, binding was characterised by a dissociation constant (Kd) of 0.882 nM.
Molecule B12 returned a Kd of 1.48 nM.
Still for that read-out and setting: then B13, with 0.959 nM.
The same measure, in the same setting: to B14 belongs 0.533 nM.

A further test addresses SARS2 spike on transduced 293T cells (UniProt P0DTC2 14-1273). The test is described as follows: FACS. In general terms: In flow cytometry, cells or beads pass a laser one at a time.
Take B15: the EC50 (commonly the concentration at which the effect is half-maximal) amounted to 0.582 nM.
Molecule B16 yielded an EC50 of 0.00588 nM.
Take B17: the midpoint of the response, the EC50, lay at 0.0237 nM.

The values are drawn from patent US20230374114A1 (published 2023).
